Experimental data: patent publication WO2022194311A2

Assays:
Experiment in all cases: SPR (Biacore 8K), His-tagged FcRn captured by anti-His antibody on CM5 chip, pH 6.0
[1] = target: cynomolgus monkey FcRn (cynomolgus monkey) (UniProt Q8SPV9)
human FcRn (human) = human FcRn (human) (UniProt P55899)
rat FcRn (rat) = rat FcRn (rat) (UniProt P13599)
Sequence of rat FcRn (rat) (P13599 23-298 limits assumed, form in doubt): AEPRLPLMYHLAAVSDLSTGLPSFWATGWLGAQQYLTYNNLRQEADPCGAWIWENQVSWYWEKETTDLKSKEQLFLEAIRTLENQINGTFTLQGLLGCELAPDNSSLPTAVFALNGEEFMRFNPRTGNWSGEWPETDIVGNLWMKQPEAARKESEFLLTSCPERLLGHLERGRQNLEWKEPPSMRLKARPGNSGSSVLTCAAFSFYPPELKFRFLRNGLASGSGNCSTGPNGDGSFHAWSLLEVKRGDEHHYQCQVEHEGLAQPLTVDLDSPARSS

Sequence of cynomolgus monkey FcRn (cynomolgus monkey) (Q8SPV9 24-297 limits assumed, form in doubt): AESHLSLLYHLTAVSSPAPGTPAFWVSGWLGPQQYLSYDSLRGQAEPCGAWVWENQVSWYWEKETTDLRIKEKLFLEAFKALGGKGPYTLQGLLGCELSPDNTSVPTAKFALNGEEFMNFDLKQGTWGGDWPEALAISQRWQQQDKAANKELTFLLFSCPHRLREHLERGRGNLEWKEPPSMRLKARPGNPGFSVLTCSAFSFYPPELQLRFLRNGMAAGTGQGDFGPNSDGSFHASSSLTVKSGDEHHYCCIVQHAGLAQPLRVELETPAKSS
Sequence of human FcRn (human) (P55899 24-297 limits assumed, form in doubt): as the sequence (Q8SPV9 24-297 limits assumed, form in doubt) above, with D39N, Q44E, S99G, G189S, N190S, M217L, T269S counted along it

Kd [1]: 10 nM
Kd (human FcRn (human)): 10 nM
Kd (rat FcRn (rat)): 10 nM
Substance: secukinumab (Cosentyx) (antibody)
